Source: patent US10357573B2, “Block copolymer conjugate of physiologically active substance” (Nippon Kayaku Kabushiki Kaisha, priority 2015, dated 2019)
Like-named read-outs stand apart in the source and are kept apart here.

Tests used:
[1] = Light scattering intensity of 1 mg/mL aqueous solution, relative to toluene; format: physicochemical; details: for relative ratio between the light scattering intensity and the light scattering intensity of toluene: 1 mg/mL aqueous solution vs standard toluene solution under the same conditions; for light scattering intensity of a 1 mg/mL aqueous solution: 1 mg/mL in ultrapure water, 25° C., wavelength 632.8 nm
Experimental: Regarding the measurement sample for the scattering intensity measurement, a solution obtained by adding ultrapure water to a physiologically active substance-conjugated block copolymer to obtain a concentration of 1 mg/mL, dissolving the block copolymer by irradiating the mixture with ultrasonic waves for 10 minutes under ice cooling, and then filtering the solution through a 0.2-μm membrane filter, was used.
Toluene (manufactured by Junsei Chemical Co., Ltd., special grade) that was used for the measurement of the light scattering intensity, was used after being filtered three times through a 0.2-μm membrane filter.

[2] = Volume average particle diameter by dynamic light scattering; format: physicochemical; details: device A, 1 mg/mL
Experimental: Measurement of the volume average particle diameters of the physiologically active substance-conjugated block copolymers of Examples and Comparative Examples was carried out using a ZetaPotential/Particlesizer NICOMP 380 ZLS (device A; temperature: 25° C.) manufactured by Particle Sizing Systems, LLC, or a particle size zeta potential analyzer, ZETASIZER NANO ZS (device B; measurement temperature: 25° C., analysis model: General Purpose (normal resolution), material RI: 1.59) manufactured by Malvern Instruments, Ltd. Regarding the volume average particle diameter measurement sample, a solution obtained by adding ultrapure water to a physiologically active substance-conjugated block copolymer to obtain a concentration of 1 mg/mL or 5 mg/mL, dissolving the block copolymer by irradiating the mixture with ultrasonic waves for 10 minutes under ice cooling, and then filtering the solution through a 0.2-μm membrane filter, was used.

[3] = Test Example A-4 hematotoxicity test in non-tumor bearing rat; format: in vivo, Sprague-Dawley rats; details: 40 mg/kg as converted to 7-ethyl-10-hydroxycamptothecin; for prolonged hematotoxicity: 7 days after administration; for Number of blood reticulocytes: iv once, 7th day after administration
Source text: The resultant solutions were used as analysis samples.

[4] = tested on: human stomach cancer SC-4-JCK; assay: Test Example A-5 antitumor effect in human stomach cancer-transplanted nude mouse; format: in vivo; details: 12 mg/kg as converted to 7-ethyl-10-hydroxycamptothecin, iv once; for Relative tumor volume: 14th day after administration, day of administration = 1.0, average ± SD
Experimental: A tumor mass of human stomach cancer SC-4-JCK that had been subcutaneously subcultured in a nude mouse was cut into a block having a size of about 3 mm on each side, and this block was subcutaneously transplanted on the dorsal side of a nude mouse using a trocar.
A relative tumor volume was determined from the tumor volumes obtained on the day of administration and on the 14th day after the administration, and this was employed as an index for the antitumor effect. The tumor volume was determined by measuring the major axis (L: mm) and the minor axis (W: mm) of the tumor, and calculating the volume by the calculation formula: (L×W^2)/2.

[5] = Test Example A-3 hepatotoxicity test in non-tumor bearing mouse; format: in vivo, Crl:CD1(ICR)(ICR(IGS)) mice; design: ALT: unit not given here; details: for ALT: iv once, blood plasma 3 days after administration; for hepatotoxicity: maximum tolerated dose iv once, 3 days after administration
Experimental: The blood plasma obtained by centrifuging the blood thus collected (4° C., 1600×g, 10 minutes) was used as a measurement sample, and a blood chemical examination of the measurement sample was performed using an automatic biochemical analysis apparatus Model 7180 (Hitachi High Technologies Corp.).

[6] = for Number of blood reticulocytes: 60 mg/kg as converted to cabazitaxel, iv once, 5th day after administration
Experimental: As a control group, a 5% glucose injection solution was intravenously administered once through the caudal vein.
Polysorbate 80 was added thereto in an amount equal to the amount of anhydrous ethanol, and the mixture was sufficiently mixed. This was used as a preparation stock solution.
After 3, 5, 7, 11, and 14 days from the day of administration of the various compounds, blood was collected through the subclavian vein without anesthesia using a 1-mL disposable syringe with a 26 G needle. About 3 μL of an EDTA-2K solution had been added in advance to the syringe, and this solution was sufficiently mixed with the blood thus collected. The resultant solutions were used as analysis samples. The blood samples were subjected to a blood cell analysis using a blood cell analysis apparatus XT-2000iV (Sysmex Corp.).

[7] = tested on: human pancreatic cancer BxPC3; assay: Test Example C-3 antitumor effect test in human pancreatic cancer-transplanted nude mouse; format: in vivo; details: for Relative tumor volume: iv once, 8th day after administration, day of administration = 1.0, average ± SD; for antitumor effect: compared to cabazitaxel 30 mg/kg
Experimental: A tumor mass of human pancreatic cancer BxPC3 that had been subcutaneously subcultured in a nude mouse was cut into a block having a size of about 3 mm on each side, and this block was subcutaneously transplanted on the dorsal side of a nude mouse using a trocar.
(§1) A relative tumor volume was determined from the tumor volumes obtained on the day of administration and on the 8th day after the administration, and this was employed as an index for the antitumor effect. The tumor volume was determined by measuring the major axis (L: mm) and the minor axis (W: mm) of the tumor, and calculating the volume by the calculation formula: (L×W^2)/2.

human lung cancer H460 = assay: Test Example C-4 antitumor effect test in human lung cancer-transplanted nude mouse; format: in vivo; details: for Relative tumor volume: iv once, 15th day after administration, day of administration = 1.0, average ± SD; for antitumor effect: compared to cabazitaxel 30 mg/kg
Experimental: A tumor mass of human lung cancer H460 that had been subcutaneously subcultured in a nude mouse was cut into a block having a size of about 3 mm on each side, and this block was subcutaneously transplanted on the dorsal side of a nude mouse using a trocar.
as §1, with “15th” for “8th”

[8] = Maximum tolerated dose / maximum non-lethal dose, single intravenous administration; format: in vivo, mice; details: iv once through the caudal vein; for maximum tolerated dose: as converted to cabazitaxel
[9] = dose 100 mg/kg as converted to 7-ethyl-10-hydroxycamptothecin (maximum tolerated dose)
[10] = 60 mg/kg as converted to cabazitaxel

Molecule	relative ratio between the light scattering intensity and the light scattering intensity of toluene [1] [times]	light scattering intensity of a 1 mg/mL aqueous solution [1]	volume average particle diameter [2] [nm]	prolonged hematotoxicity [3]	Number of blood reticulocytes [3]	Relative tumor volume [4]	ALT [5, 9]	hepatotoxicity [5]	antitumor effect [7, 10]	Relative tumor volume [7, 10]	antitumor effect (human lung cancer H460; [10])	Relative tumor volume (human lung cancer H460; [10])	maximum tolerated dose [8] [mg/kg]	further results
7-ethyl-10-Hydroxycamptothecin (EHC) Conjugate of polyethylene glycol (5 Kilodaltons)-polyglutamic Acid (10.0 Polymer) Block Copolymer [Example A-3]	3.0	16,750 cps	8	prolonged hematotoxicity was not recognized	54.29 ± 8.49 ×10^4/μL	1.574 ± 0.388	–	–	–	–	–	–	–	antitumor effect [4]: stronger antitumor effect compared to the Comparative Examples
7-ethyl-10-hydroxycamptothecin (EHC) Conjugate of polyethylene glycol (2 Kilodaltons)-polyglutamic Acid (7.6 Polymer) Block Copolymer [Example A-1]	3.1	17,070 cps	6	prolonged hematotoxicity was not recognized	64.18 ± 4.43 ×10^4/μL	2.466 ± 0.398	64 ± 25	hepatotoxicity was negligible	–	–	–	–	–	–
7-ethyl-10-hydroxycamptothecin (EHC) Conjugate of polyethylene glycol (2 Kilodaltons)-polyglutamic Acid (10.0 Polymer) Block Copolymer [Example A-2]	4.9	27,149 cps	10	–	–	2.593 ± 0.482	55 ± 54	hepatotoxicity was negligible	–	–	–	–	–	–
7-ethyl-10-hydroxycamptothecin (EHC) Conjugate of polyethylene glycol (3 Kilodaltons)-polyglutamic Acid (6.6 Polymer) Block Copolymer [Comparative Example A-2, reference compound]	1.80	9,964 cps	–	–	66.17 ± 7.74 ×10^4/μL	2.426 ± 1.122	528 ± 681	occurrence of hepatotoxicity was acknowledged	–	–	–	–	–	self-association in aqueous solution [1]: non-associating
7-ethyl-10-hydroxycamptothecin (EHC) Conjugate of polyethylene glycol (12 Kilodaltons)-polyglutamic Acid (7.5 Polymer) Block Copolymer [Comparative Example A-3]	1.0	5,625 cps	–	–	–	–	–	hepatotoxicity was clearly manifested	–	–	–	–	–	self-association in aqueous solution [1]: non-associating; ALT ([5]; dose 50 mg/kg as converted to 7-ethyl-10-hydroxycamptothecin (maximum tolerated dose)): 114 ± 68
7-ethyl-10-hydroxycamptothecin (EHC) Conjugate of polyethylene glycol (12 Kilodaltons)-polyglutamic Acid (25 Polymer) Block Copolymer [Comparative Example A-1, reference compound]	7.5	41,321 cps	20	prolonged hematotoxicity was recognized	20.26 ± 11.50 ×10^4/μL	2.232 ± 0.534	–	–	–	–	–	–	–	–
CO[C@H]1C(=O)[C@]2(C)[C@@H](OC)C[C@H]3OC[C@@]3(OC(C)=O)[C@H]2[C@H](OC(=O)c2ccccc2)[C@]2(O)C[C@H](OC(=O)[C@H](O)[C@@H](NC(=O)OC(C)(C)C)c3ccccc3)C(C)=C1C2(C)C [Cabazitaxel, reference compound]	–	–	–	–	–	–	–	–	–	–	–	–	–	prolonged hematotoxicity ([6]; mouse, in vivo): prolonged hematotoxicity was not recognized; Relative tumor volume ([7]; 30 mg/kg): 1.19 ± 0.21; Relative tumor volume (human lung cancer H460; 30 mg/kg): 1.476 ± 0.509; maximum non-lethal dose [8]: 30 mg/kg
Cabazitaxel (CBZ) Conjugate of polyethylene glycol (5 Kilodaltons)-α-polyaspartic Acid (20.0 Polymer) Block Copolymer [Example C-2]	–	–	–	–	–	–	–	–	stronger tumor proliferation suppressing action	0.81 ± 0.17	stronger tumor proliferation suppressing action	0.800 ± 0.371	60	–
Cabazitaxel (CBZ) Conjugate of polyethylene glycol (12 Kilodaltons)-α,β-polyaspartic Acid (23.8 Polymer) Block Copolymer [Comparative Example C-1, reference compound]	–	–	–	–	–	–	–	–	stronger tumor proliferation suppressing action	0.78 ± 0.09	stronger tumor proliferation suppressing action	0.484 ± 0.083	60	Number of blood reticulocytes [6]: 18.49 ± 13.10 ×10^4/μL; prolonged hematotoxicity ([6]; 5 days after administration): prolonged hematotoxicity was recognized
Cabazitaxel (CBZ) and n-butylamine Conjugate of polyethylene glycol (2 Kilodaltons)-α,β-polyaspartic Acid (12.5 Polymer) Block Copolymer [Example C-1]	–	–	–	–	–	–	–	–	stronger tumor proliferation suppressing action	0.83 ± 0.10	stronger tumor proliferation suppressing action	0.560 ± 0.201	60	Number of blood reticulocytes [6]: 52.69 ± 13.95 ×10^4/μL; prolonged hematotoxicity ([6]; 5 days after administration): prolonged hematotoxicity was not recognized
